Literature values, collected in publication PMC10083361.

Target: TRAF2 (Homo sapiens) (UniProt Q12933)
Sequence (Q12933 2-501): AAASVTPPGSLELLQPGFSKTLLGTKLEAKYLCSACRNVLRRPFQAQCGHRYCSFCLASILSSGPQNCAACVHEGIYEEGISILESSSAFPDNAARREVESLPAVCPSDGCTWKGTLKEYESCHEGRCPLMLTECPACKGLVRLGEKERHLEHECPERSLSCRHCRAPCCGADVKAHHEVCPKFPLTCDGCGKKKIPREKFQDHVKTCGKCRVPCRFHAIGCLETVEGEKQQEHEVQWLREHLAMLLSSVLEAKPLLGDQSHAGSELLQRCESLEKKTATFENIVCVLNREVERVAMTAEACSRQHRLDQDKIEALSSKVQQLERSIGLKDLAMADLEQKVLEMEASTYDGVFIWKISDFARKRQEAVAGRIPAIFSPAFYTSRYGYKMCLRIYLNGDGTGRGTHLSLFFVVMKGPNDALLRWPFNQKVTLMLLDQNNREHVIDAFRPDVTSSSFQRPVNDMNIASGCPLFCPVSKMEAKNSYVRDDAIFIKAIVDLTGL

Sequence of 4-1BB (Q07011 24-255): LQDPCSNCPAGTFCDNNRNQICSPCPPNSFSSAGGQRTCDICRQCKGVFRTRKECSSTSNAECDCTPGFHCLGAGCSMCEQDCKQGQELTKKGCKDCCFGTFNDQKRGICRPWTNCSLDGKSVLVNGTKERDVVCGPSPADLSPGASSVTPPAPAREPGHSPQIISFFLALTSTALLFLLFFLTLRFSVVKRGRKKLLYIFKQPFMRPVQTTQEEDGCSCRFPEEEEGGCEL

Kd: 1 mM
Substance: 4-1BB (from UniProt Q07011)
